# Values of other authors, collected in PMC8295177 (Cancer discovery, 2021).
# Where two headings read alike, the source gives them in different places.
# Tested on: NSCLC with EGFRex20ins mutations
# Details: cited from earlier work
# [1] = 39 response-evaluable patients with advanced NSCLC and EGFRex20ins mutations, phase 1
molecule,measurement,setting,value
"amivantamab: an intravenous bispecific antibody that targets EGFR and MET (antibody, chains of the INN, looked up, V domains shown) VH: QVQLVESGGGVVQPGRSLRLSCAASGFTFSTYGMHWVRQAPGKGLEWVAVIWDDGSYKYYGDSVKGRFTISRDNSKNTLYLQMNSLRAEDTAVYYCARDGITMVRGVMKDYFDYWGQGTLVTVSS VL: AIQLTQSPSSLSASVGDRVTITCRASQDISSALVWYQQKPGKAPKLLIYDASSLESGVPSRFSGSESGTDFTLTISSLQPEDFATYYCQQFNSYPLTFGGGTKVEIK VH2: QVQLVQSGAEVKKPGASVKVSCETSGYTFTSYGISWVRQAPGHGLEWMGWISAYNGYTNYAQKLQGRVTMTTDTSTSTAYMELRSLRSDDTAVYYCARDLRGTNYFDYWGQGTLVTVSS VL2: DIQMTQSPSSVSASVGDRVTITCRASQGISNWLAWFQHKPGKAPKLLIYAASSLLSGVPSRFSGSGSGTDFTLTISSLQPEDFATYYCQQANSFPITFGQGTRLEIK",investigator-assessed response rate (ORR),[1],36%
same,median PFS,[1],8.3 months
same,median PFS,patients with NSCLC with EGFRex20ins and other EGFR mutations,8.3
